± gives the standard deviation of the averaged measurements.

We go through 6 sequences from the supplement of paper PMC11246515.

This data set in a line: total protein half-life in vivo (active degradation + dilution); higher = more stable protein.
Where [1] appears, read: E. coli NCM3722 delta-clpP delta-lon delta-hslV, growth: N-lim chemostat, doubling time 6 h.
Where [2] appears, read: E. coli NCM3722 delta-clpP, growth: N-lim chemostat, doubling time 6 h.
[3] abbreviates: E. coli NCM3722 delta-hslV, growth: N-lim chemostat, doubling time 6 h.
[4] abbreviates: E. coli NCM3722 delta-lon, growth: N-lim chemostat, doubling time 6 h.
The mark [5] stands for this setting: E. coli NCM3722 delta-smpB, growth: N-lim chemostat, doubling time 6 h.
Setting [6] is: wild type E. coli NCM3722, growth: C-lim chemostat, doubling time 3 h.
Where [7] appears, read: wild type E. coli NCM3722, growth: C-lim chemostat, doubling time 6 h.
Setting [8] is: wild type E. coli NCM3722, growth: C-lim chemostat, doubling time 12 h.
The mark [9] stands for this setting: wild type E. coli NCM3722, growth: N-lim chemostat, doubling time 6 h.
[10] abbreviates: wild type E. coli NCM3722, growth: N-lim chemostat, doubling time 12 h.
[11] abbreviates: wild type E. coli NCM3722, growth: P-lim chemostat, doubling time 6 h.
[12] abbreviates: wild type E. coli NCM3722, growth: P-lim chemostat, doubling time 12 h.

In the case of “MESLTLQPIARVDGTINLPGSKSVSNRALLLAALAHGKTVLTNLLDSDDVRHMLNALTALGVSYTLSADRTRCEIIGNGGPLHAEGALELFLGNAGTAMRPLAAALCLGSNDIVLTGEPRMKERPIGHLVDALRLGGAKITYLEQENYPPLRLQGGFTGGNVDVDGSVSSQFLTALLMTAPLAPEDTVIRIKGDLVSKPYIDITLNLMKTFGVEIENQHYQQFVVKGGQSYQSPGTYLVEGDASSASYFLAAAAIKGGTVKVTGIGRNSMQGDIRFADVLEKMGATICWGDDYISCTRGELNAIDMDMNHIPDAAMTIATAALFAKGTTTLRNIYNWRVKETDRLFAMATELRKVGAEVEEGHDYIRITPPEKLNFAEIATYNDHRMAMCFSLVALSDTPVTILDPKCTAKTFPDYFEQLARISQAA [P0A6D3]”, the “total protein half-life in vivo” value by setting is: under setting [1], 5.15 ± 0.18 h; under setting [2], 5.52 ± 1.1 h; under setting [3], 4.53 ± 0.15 h; under setting [4], 5.22 ± 0.56 h; under setting [5], 4.53 ± 0.049 h; under setting [6], 3.1 ± 0.1 h. The “total protein half-life in vivo” value is, setting by setting: under setting [7], 5.96 ± 0.62 h; under setting [8], 11.3 ± 0.63 h; under setting [9], 4.45 ± 0.31 h; under setting [10], 7.534 ± 0.05 h; under setting [11], 5.98 ± 0.078 h; under setting [12], 12.1 ± 1.5 h.
Turning to “MLELLYTALLYLIQPLIWIRLWVRGRKAPAYRKRWGERYGFYRHPLKPGGIMLHSVSVGETLAAIPLVRALRHRYPDLPITVTTMTPTGSERVQSAFGKDVQHVYLPYDLPDALNRFLNKVDPKLVLIMETELWPNLIAALHKRKIPLVIANARLSARSAAGYAKLGKFVRRLLRRITLIAAQNEEDGARFVALGAKNNQVTVTGSLKFDISVTPQLAAKAVTLRRQWAPHRPVWIATSTHEGEESVVIAAHQALLQQFPNLLLILVPRHPERFPDAINLVRQAGLSYITRSSGEVPSTSTQVVVGDTMGELMLLYGIADLAFVGGSLVERGGHNPLEAAAHAIPVLMGPHTFNFKDICARLEQASGLITVTDATTLAKEVSSLLTDADYRSFYGRHAVEVLYQNQGALQRLLQLLEPYLPPKTH [P0AC75]”, the “total protein half-life in vivo” value was determined as 5.95 ± 0.12 h under setting [1]; 6.64 ± 0.62 h under setting [2]; 6.5 ± 0.35 h under setting [3]; 6.08 ± 0.49 h under setting [4]; 6.219 ± 0.038 h under setting [5]; 3.23 ± 0.044 h under setting [6]. Also, the “total protein half-life in vivo” value stood at 6.2 ± 0.5 h under setting [7]; 10.6 ± 1.9 h under setting [8]; 6.524 ± 0.011 h under setting [9]; 13.7 ± 1.2 h under setting [10]; 6.317 ± 0.014 h under setting [11]; 11.9 ± 0.48 h under setting [12].
Regarding “MNIELRHLRYFVAVAEELHFGRAAARLNISQPPLSQQIQALEQQIGARLLARTNRSVLLTAAGKQFLADSRQILSMVDDAAARAERLHQGEAGELRIGFTSSAPFIRAVSDTLSLFRRDYPDVHLQTREMNTREQIAPLIEGTLDMGLLRNTALPESLEHAVIVHEPLMAMIPHDHPLANNPNVTLAELAKEPFVFFDPHVGTGLYDDILGLMRRYHLTPVITQEVGEAMTIIGLVSAGLGVSILPASFKRVQLNEMRWVPIAEEDAVSEMWLVWPKHHEQSPAARNFRIHLLNALR”, the “total protein half-life in vivo” value turned out to be 6 ± 0.22 h under setting [1]; 5.84 ± 0.3 h under setting [2]; 6.28 ± 0.17 h under setting [3]; 5.5 ± 0.23 h under setting [4]; 5.65 ± 0.16 h under setting [5]; 6.3 ± 1.5 h under setting [7]. Moreover, the “total protein half-life in vivo” value is, setting by setting: under setting [8], 11.97 ± 0.024 h; under setting [9], 6.8 ± 0.96 h; under setting [10], 12.5 ± 1.8 h; under setting [11], 5.12 ± 0.62 h; under setting [12], 13.3 ± 0.86 h.
Regarding “MRSPICHLFSAINSSPFKIAPEKEQDLKTIVDDKKIIISVVSEPGFNIRVRKNESNNSHEIVLTVASLEYIWAFSNFFWVFTQEYSKSQKNNDEHFDLTGKNRLKKSDELLKWARKNLQTTGCESWPKKCPKPEAYLQGSEDSQVASEIFLCAIAWILHHEISHVVLQHPLVTTAFSTQEEREADSHATKWILGNLYESAPELKKRALGIATAVLCIQSLEVENYFCLQNTHPAAYERIYSNISCYPVGNEELIEALCTVMLQYLFHGKNINVNLDGESFSSILGDLLCDISRLTSN”, the “total protein half-life in vivo” value came out at 4.49 ± 0.37 h under setting [1] and 1.26 h under setting [5].
“MSHQKIIQDLIAWIDEHIDQPLNIDVVAKKSGYSKWYLQRMFRTVTHQTLGDYIRQRRLLLAAVELRTTERPIFDIAMDLGYVSQQTFSRVFRRQFDRTPSDYRHRL [P0A9E2]”: the “total protein half-life in vivo” value under setting [1] worked out at 6.13 ± 1.3 h.
On to “MAISTPMLVTFCVYIFGMILIGFIAWRSTKNFDDYILGGRSLGPFVTALSAGASDMSGWLLMGLPGAVFLSGISESWIAIGLTLGAWINWKLVAGRLRVHTEYNNNALTLPDYFTGRFEDKSRILRIISALVILLFFTIYCASGIVAGARLFESTFGMSYETALWAGAAATILYTFIGGFLAVSWTDTVQASLMIFALILTPVIVIISVGGFGDSLEVIKQKSIENVDMLKGLNFVAIISLMGWGLGYFGQPHILARFMAADSHHSIVHARRISMTWMILCLAGAVAVGFFGIAYFNDHPALAGAVNQNAERVFIELAQILFNPWIAGILLSAILAAVMSTLSCQLLVCSSAITEDLYKAFLRKHASQKELVWVGRVMVLVVALVAIALAANPENRVLGLVSYAWAGFGAAFGPVVLFSVMWSRMTRNGALAGMIIGALTVIVWKQFGWLGLYEIIPGFIFGSIGIVVFSLLGKAPSAAMQKRFAEADAHYHSAPPSRLQES”, for which the “total protein half-life in vivo” value turned out to be 5.44 ± 0.019 h under setting [1]; 4.61 ± 0.21 h under setting [2]; 4.68 ± 0.42 h under setting [3]; 4.66 h under setting [4]; 4.592 ± 0.044 h under setting [5]; 3.51 ± 0.45 h under setting [6]. Further, the “total protein half-life in vivo” value amounted to 5.52 ± 0.072 h under setting [7]; 9.72 ± 1.1 h under setting [8]; 7.25 ± 1.6 h under setting [10]; 5.18 ± 0.42 h under setting [11]; 10.6 ± 0.28 h under setting [12].
